Data taken from article doi:10.1101/2022.02.05.479199.

Legend:
hRPA;RPAIN = hRPA;RPAIN (human;human, UniProt P27694;P15927;P35244;Q86UA6 1-616;1-270;1-121;1-219, |); experiment: EMSA
hRPA = hRPA (human, UniProt P27694;P15927;P35244 1-616;1-270;1-121); experiment: EMSA
Sequence of hRPA (P27694 whole entry, chain 1 of 3): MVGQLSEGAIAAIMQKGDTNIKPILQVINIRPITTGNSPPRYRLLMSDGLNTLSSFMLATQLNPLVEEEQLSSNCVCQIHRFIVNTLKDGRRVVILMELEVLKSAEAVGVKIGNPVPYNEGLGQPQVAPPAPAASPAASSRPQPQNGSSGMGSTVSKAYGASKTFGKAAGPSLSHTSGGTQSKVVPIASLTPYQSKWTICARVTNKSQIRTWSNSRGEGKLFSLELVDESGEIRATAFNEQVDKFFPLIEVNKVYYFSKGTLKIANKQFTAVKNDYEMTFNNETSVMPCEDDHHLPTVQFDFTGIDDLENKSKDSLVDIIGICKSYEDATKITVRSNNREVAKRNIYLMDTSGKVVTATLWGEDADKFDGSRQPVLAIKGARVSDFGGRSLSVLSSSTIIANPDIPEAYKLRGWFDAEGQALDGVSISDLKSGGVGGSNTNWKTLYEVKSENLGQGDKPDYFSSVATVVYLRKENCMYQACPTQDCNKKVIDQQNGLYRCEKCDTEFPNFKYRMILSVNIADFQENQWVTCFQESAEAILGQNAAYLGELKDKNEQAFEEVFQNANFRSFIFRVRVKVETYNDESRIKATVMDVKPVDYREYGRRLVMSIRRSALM
Sequence of hRPA (P15927 whole entry, chain 2 of 3): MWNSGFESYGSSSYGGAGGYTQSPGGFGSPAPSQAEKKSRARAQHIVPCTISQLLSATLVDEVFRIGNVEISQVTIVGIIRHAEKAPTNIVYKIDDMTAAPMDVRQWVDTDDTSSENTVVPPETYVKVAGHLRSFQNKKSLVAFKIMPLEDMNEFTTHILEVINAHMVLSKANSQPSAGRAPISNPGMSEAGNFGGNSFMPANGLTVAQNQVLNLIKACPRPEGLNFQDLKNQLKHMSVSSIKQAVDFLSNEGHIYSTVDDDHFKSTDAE
Sequence of hRPA (P35244 whole entry, chain 3 of 3): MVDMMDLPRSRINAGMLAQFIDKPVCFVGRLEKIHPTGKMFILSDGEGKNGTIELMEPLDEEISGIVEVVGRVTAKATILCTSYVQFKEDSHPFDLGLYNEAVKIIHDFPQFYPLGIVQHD

Sequence of hRPA;RPAIN (P27694 whole entry, chain 1 of 4): as the sequence (P27694 whole entry, chain 1 of 3) above
Sequence of hRPA;RPAIN (P15927 whole entry, chain 2 of 4): as the sequence (P15927 whole entry, chain 2 of 3) above
Sequence of hRPA;RPAIN (P35244 whole entry, chain 3 of 4): as the sequence (P35244 whole entry, chain 3 of 3) above
Sequence of hRPA;RPAIN (Q86UA6 whole entry, chain 4 of 4): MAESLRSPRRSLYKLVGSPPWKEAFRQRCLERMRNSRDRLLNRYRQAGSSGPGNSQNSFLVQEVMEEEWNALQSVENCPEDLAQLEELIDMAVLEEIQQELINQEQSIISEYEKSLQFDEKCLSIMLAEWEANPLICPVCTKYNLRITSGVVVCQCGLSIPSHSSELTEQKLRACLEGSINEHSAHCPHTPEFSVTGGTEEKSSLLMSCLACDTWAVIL

TTTTTTTTTTTTTTTTTTTTTTTTTTTTTT (ssDNA) [5'-Cy5-(dT)30]
Kd (hRPA;RPAIN): 11.8 nM
Kd (hRPA): 10.5 nM
